# In US20250382344A1, “Soluble GLP1/GIP/NPY2 Receptor Triple Agonists” (Boehringer Ingelheim International GmH, priority 2024, published 2025):
# Numbering of substitutions follows the chain as printed. *1 amine or outer side, *2 acyl side, *3 side chain or, on linkers, in order; H or OH if unused. Where no end group is shown, it is not given here. Side-chain parts run from the residue outwards. [ ]: non-standard residue; d: D form. The star is where a group is joined. C20 diacid = O=C(O)CCCCCCCCCCCCCCCCCCC(=O)*; C18 diacid = O=C(O)CCCCCCCCCCCCCCCCC(=O)*; γGlu = O=C(O)[C@H](CCC(=O)[*:2])N[*:1]; εLys = N[C@@H](CCCCN[*:1])C(=O)[*:2]; Aib = CC(C)(N)C(=O)O; Ahx = NCCCCCC(=O)O
# T1: human neuropeptide Y2 receptor (human, UniProt P49146 1-381)
# T1 sequence (looked up): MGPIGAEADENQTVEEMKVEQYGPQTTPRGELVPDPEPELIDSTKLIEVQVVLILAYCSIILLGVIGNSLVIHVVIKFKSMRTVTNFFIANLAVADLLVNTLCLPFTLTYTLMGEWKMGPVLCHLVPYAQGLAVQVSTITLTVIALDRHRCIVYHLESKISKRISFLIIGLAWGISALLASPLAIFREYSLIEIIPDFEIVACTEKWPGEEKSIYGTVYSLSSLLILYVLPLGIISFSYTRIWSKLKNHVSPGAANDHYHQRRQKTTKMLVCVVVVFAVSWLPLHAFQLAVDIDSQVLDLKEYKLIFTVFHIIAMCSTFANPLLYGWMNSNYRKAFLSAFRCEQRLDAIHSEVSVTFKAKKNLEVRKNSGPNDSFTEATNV
# T2: human neuropeptide Y2 receptor (human, UniProt P49146 1-381)
# T2 sequence (looked up): T1 sequence (looked up)
# B1: Compound 98 (peptide)
# peptide: YXEGTFTSDYSIXLEKQAQXEFVRHLINKXTRQRY
# modifications: Aib at 2, 13, 20, 30; Lys29 epsilon-amino: C18DA-gGlu-gGlu-gGlu-gGlu-gGlu-OEG-OEG; C-terminal amide
# B2: Compound 107 (peptide)
# peptide: B1 peptide with E21A, I27L
# modifications: Aib at 2, 13, 20, 30; Lys29 epsilon-amino: C18DA-gGlu-gGlu-gGlu-gGlu-gGlu-gGlu-eLys; C-terminal amide
# B3: Compound 117 (peptide)
# peptide: B1 peptide with E21A
# modifications: Aib at 2, 13, 20, 30; Lys29 epsilon-amino: C18DA-gGlu-gGlu-gGlu-gGlu-gGlu-OEG-OEG; C-terminal amide
# B4: Compound 123 (peptide)
# peptide: B1 peptide with K16A, E21A
# modifications: Aib at 2, 13, 20, 30; Lys29 epsilon-amino: C18DA-gGlu-gGlu-gGlu-gGlu-gGlu-gGlu-eLys; C-terminal amide
# B5: Compound 131 (peptide)
# peptide: B1 peptide with E15D
# modifications: Aib at 2, 13, 20, 30; Lys29 epsilon-amino: C18DA-gGlu-gGlu-gGlu-gGlu-gGlu-gGlu-eLys; C-terminal amide
# B6: Compound 165 (peptide)
# peptide: B1 peptide with X13A, E21A
# modifications: Aib at 2, 20, 30; Lys29 epsilon-amino: C18DA-gGlu-gGlu-gGlu-gGlu-gGlu-gGlu-eLys; C-terminal amide
# B7: Compound 13 (peptide)
# peptide: B1 peptide with E21A
# modifications: Aib at 2, 13, 20, 30; Lys29 epsilon-amino acylated with C18DA-gGlu-gGlu-gGlu-gGlu-gGlu-AHX; C-terminal amide
# Biological target: T1, human neuropeptide Y2 receptor
# Assay: cell-based or functional assay
Binder,"EC50, CreLuc reporter, 0.5% hP","EC50, CreLuc reporter, 100% hP"
Y[Aib]EGTFTSDYSI[Aib]LEKQAQ[Aib]AFVRHLINK([γGlu-γGlu-γGlu-εLys-γGlu-γGlu-γGlu-C18 diacid])[Aib]TRQRY-NH2 [Compound 168],27.7 nM,
B1,27.3 nM,202 nM
B2,13.3 nM,20.3 nM
Y[Aib]EGTFTSDYSI[Aib]LDEQAQ[Aib]AFVRHLINK([εLys-γGlu-γGlu-γGlu-γGlu-γGlu-C18 diacid])[Aib]TRQRY-NH2 [Compound 108],20.3 nM,120 nM
B3,,39.2 nM
B4,51.6 nM,232 nM
B5,17.5 nM,85.9 nM
Y[Aib]EGTFTSDYSI[Aib]LEKQAQ[Aib]AFVRHLINK([Ahx-γGlu-γGlu-γGlu-γGlu-γGlu-γGlu-C20 diacid])[Aib]TRQRY-NH2 [Compound 157],15.9 nM,135 nM
B6,17.1 nM,32.9 nM

# Biological target: T2, human neuropeptide Y2 receptor
# Assay: cell-based or functional assay
Binder,"EC50, CreLuc reporter, 0.5% hP","EC50, CreLuc reporter, 100% hP"
B7,18.7 nM,121 nM
